According to article PMC11470070, “Structural basis for synthase activation and cellulose modification in the E. coli Type II Bcs secretion system” (Nature Communications, 2024):

T1: BcsQ (BcsR2Q2 in the Bcs macrocomplex) (Escherichia coli, UniProt P0DP92)
T1 construct: full-length untagged BcsQ with His-BcsR; co-expressed Bcs macrocomplex in E. coli NiCo21(DE3), anti-FLAG purified; nucleotide-driven sandwich dimer; with Cellulose biosynthesis protein BcsR; Cellulose synthase catalytic subunit [UDP-forming]; Cellulose biosynthesis protein BcsF; Cellulose biosynthesis protein BcsG
T1 sequence (P0DP92 1-250): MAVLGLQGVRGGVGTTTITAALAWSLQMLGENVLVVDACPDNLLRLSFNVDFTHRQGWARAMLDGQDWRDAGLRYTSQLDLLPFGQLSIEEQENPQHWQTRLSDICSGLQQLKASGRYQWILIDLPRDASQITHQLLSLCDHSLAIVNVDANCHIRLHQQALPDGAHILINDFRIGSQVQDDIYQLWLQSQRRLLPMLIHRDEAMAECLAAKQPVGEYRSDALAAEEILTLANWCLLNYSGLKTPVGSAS
T1 sequence (P0ADJ3 1-62 partner): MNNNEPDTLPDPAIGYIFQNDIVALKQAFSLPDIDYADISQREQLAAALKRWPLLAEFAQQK

T2: BcsA cellulose synthase (BcsA^HA-FLAG) (E. coli, UniProt P37653 1-872)
T2 construct: BcsA, E. coli; amplified within the genomic region bcsRQA^HA-FLAGB from genomic DNA of the E. coli 1094 bcsA^HA-FLAG strain; domains NTD, TMD, GT, PilZ, C-terminal tail; Expressed from the whole genomic region bcsRQAB of strain 1094; One copy in the macrocomplex; source: for the BcsF variants E. coli Δbcs BL21*(DE3)
T2 sequence: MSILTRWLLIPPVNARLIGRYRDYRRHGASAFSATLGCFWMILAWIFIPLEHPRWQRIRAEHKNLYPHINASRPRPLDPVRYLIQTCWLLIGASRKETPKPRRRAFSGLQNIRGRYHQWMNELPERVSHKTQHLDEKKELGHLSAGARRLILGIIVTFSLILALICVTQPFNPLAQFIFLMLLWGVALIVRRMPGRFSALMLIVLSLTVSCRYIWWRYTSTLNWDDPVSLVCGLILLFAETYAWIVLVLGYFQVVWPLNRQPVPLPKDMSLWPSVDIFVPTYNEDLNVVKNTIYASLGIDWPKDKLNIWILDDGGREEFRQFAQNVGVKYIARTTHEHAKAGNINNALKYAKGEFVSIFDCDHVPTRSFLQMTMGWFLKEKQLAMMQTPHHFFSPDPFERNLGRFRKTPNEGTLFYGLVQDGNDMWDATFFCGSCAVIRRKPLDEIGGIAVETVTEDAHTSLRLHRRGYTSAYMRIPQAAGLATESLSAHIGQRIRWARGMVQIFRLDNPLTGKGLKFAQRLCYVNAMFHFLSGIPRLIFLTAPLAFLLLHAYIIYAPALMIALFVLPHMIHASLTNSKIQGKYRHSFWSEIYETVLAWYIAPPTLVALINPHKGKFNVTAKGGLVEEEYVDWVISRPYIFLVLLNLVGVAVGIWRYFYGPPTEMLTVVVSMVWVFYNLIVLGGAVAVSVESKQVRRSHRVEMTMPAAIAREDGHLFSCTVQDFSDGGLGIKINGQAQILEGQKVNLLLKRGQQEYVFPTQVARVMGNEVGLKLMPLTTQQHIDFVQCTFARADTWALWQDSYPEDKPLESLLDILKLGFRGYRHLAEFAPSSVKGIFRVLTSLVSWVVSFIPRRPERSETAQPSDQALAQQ


What was measured:
[1] = molecular target: T1, BcsQ (BcsR2Q2 in the Bcs macrocomplex); test: cryo-EM structure of the complex; assay type: binding; settings: nucleotide-driven BcsQ sandwich dimer; text says ATP-bound, but 10 uM AppCp (non-hydrolysable analogue) was in the purification buffers; 5 mM MgCl2, pH 8.0
[2] = molecular target: T3, BcsE (in the BcsR2Q2AB6E2F2G3 Bcs macrocomplex) (Escherichia coli, UniProt P37657); test: cryo-EM structure of the complex; assay type: binding; settings: intercalated c-di-GMP dimer per BcsE protomer at the REC*-GGDEF* dual I-site (R306ATD, R415TGD); 2-4 uM c-di-GMP, 5 mM MgCl2, pH 8.0
T3 construct: full-length, N-terminal Strep II tag; co-expressed Bcs macrocomplex in E. coli NiCo21(DE3), anti-FLAG purified; with Cellulose biosynthesis protein BcsF; Cellulose biosynthesis protein BcsR; Cellulose biosynthesis protein BcsQ; Cellulose synthase catalytic subunit [UDP-forming]; Cellulose biosynthesis protein BcsG

[3] = molecular target: the molecule itself; test: cryo-EM structure; Bcs macrocomplex co-expressed in E. coli and purified on anti-FLAG gel by BcsA^HA-FLAG, 20 mM HEPES pH 8.0, 120 mM NaCl, 5 mM MgCl2, 10 μM AppCp, 4 μM c-di-GMP, 0.01% LM-NPG; class of the c-di-GMP-saturated macrocomplex with local refinements; the BcsB crown refined from all particles
[4] = molecular target: T2, BcsA cellulose synthase (BcsA^HA-FLAG); test: cryo-EM structure; same sample and grids as a1; class of particles with a c-di-GMP-free BcsA synthase (non-saturated macrocomplex), with local refinements; settings: both partners purified
[5] = molecular target: the molecule itself; test: as above

| Molecule | stoichiometry N [3] | stoichiometry N [5] | further results |
| --- | --- | --- | --- |
| Nc1ncnc2c1ncn2[C@@H]1O[C@H](COP(=O)(O)OP(=O)(O)OP(=O)(O)O)[C@@H](O)[C@H]1O [ATP] | – | – | cryo-EM structure of the complex [1]: the BcsR copies stabilize the ATP-bound BcsQ apical dimer |
| Nc1nc2c(ncn2[C@@H]2O[C@@H]3COP(=O)(O)O[C@H]4[C@@H](O)[C@H](n5cnc6c(=O)[nH]c(N)nc65)O[C@@H]4COP(=O)(O)O[C@H]3[C@H]2O)c(=O)[nH]1 [c-di-GMP] | – | – | cryo-EM structure of the complex [2]: An intercalated c-di-GMP dimer is found at each cis-interdomain interface of a closed BcsE |
| BcsB co-polymerase (natural protein, E. coli, UniProt P37652 26-779, looked up, BcsB, E. coli; amplified within the genomic region bcsRQA^HA-FLAGB of E. coli 1094; periplasmic modules CBD1-FD1-CBD2-FD2 and a C-terminal tail-anchor (TA); Six copies in the macrocomplex; the strain used is 1094; also called BcsB^TA (tail-anchor); periplasmic crown) TPATQPLINAEPAVAAQTEQNPQVGQVMPGVQGADAPVVAQNGPSRDVKLTFAQIAPPPGSMVLRGINPNGSIEFGMRSDEVVTKAMLNLEYTPSPSLLPVQSQLKVYLNDELMGVLPVTKEQLGKKTLAQMPINPLFISDFNRVRLEFVGHYQDVCEKPASTTLWLDVGRSSGLDLTYQTLNVKNDLSHFPVPFFDPSDNRTNTLPMVFAGAPDVGLQQASAIVASWFGSRSGWRGQNFPVLYNQLPDRNAIVFATNDKRPDFLRDHPAVKAPVIEMINHPQNPYVKLLVVFGRDDKDLLQAAKGIAQGNILFRGESVVVNEVKPLLPRKPYDAPNWVRTDRPVTFGELKTYEEQLQSSGLEPAAINVSLNLPPDLYLMRSTGIDMDINYRYTMPPVKDSSRMDISLNNQFLQSFNLSSKQEANRLLLRIPVLQGLLDGKTDVSIPALKLGATNQLRFDFEYMNPMPGGSVDNCITFQPVQNHVVIGDDSTIDFSKYYHFIPMPDLRAFANAGFPFSRMADLSQTITVMPKAPNEAQMETLLNTVGFIGAQTGFPAINLTVTDDGSTIQGKDADIMIIGGIPDKLKDDKQIDLLVQATESWVKTPMRQTPFPGIVPDESDRAAETRSTLTSSGAMAAVIGFQSPYNDQRSVIALLADSPRGYEMLNDAVNDSGKRATMFGSVAVIRESGINSLRVGDVYYVGHLPWFERVWYALANHPILLAVLAAISVILLAWVLWRLLRIISRRRLNPDNE | 6 | – | – |
| BcsQ (natural protein, E. coli, BcsQ, E. coli; amplified within the genomic region bcsRQA^HA-FLAGB of E. coli 1094; the strain used is 1094; also called SIMIBI family NTPase BcsQ) MAVLGLQGVRGGVGTTTITAALAWSLQMLGENVLVVDACPDNLLRLSFNVDFTHRQGWARAMLDGQDWRDAGLRYTSQLDLLPFGQLSIEEQENPQHWQTRLSDICSGLQQLKASGRYQWILIDLPRDASQITHQLLSLCDHSLAIVNVDANCHIRLHQQALPDGAHILINNFRIGSQVQDDIYQLWLQSQRRLLPMLIHRDEAMAECLAAKQPVGEYRSDALAAEEILTLANWCLLNYSGLKTPVGSKS | 2 | – | – |
| BcsG pEtN-transferase (enzyme, E. coli, BcsG, E. coli; amplified within the genomic region bcsEFG; N-terminal domain of 5 transmembrane helices, 48-residue linker, C-terminal pEtN-transferase domain (the last not resolved in the maps); Three copies in the macrocomplex; also called BcsG^NTD; BcsG3) MTQFTQNTAMPSSLWQYWRGLSGWNFYFLVKFGLLWAGYLNFHPLLNLVFAAFLLMPLPRYSLHRLRHWIALPIGFALFWHDTWLPGPESIMSQGSQVAGFSTDYLIDLVTRFINWQMIGAIFVLLVAWLFLSQWIRITVFVVAILLWLNVLTLAGPSFSLWPAGQPTTTVTTTGGNAAATVAATGGAPVVGDMPAQTAPPTTANLNAWLNNFYNAEAKRKSTFPSSLPADAQPFELLVINICSLSWSDIEAAGLMSHPLWSHFDIEFKNFNSATSYSGPAAIRLLRASCGQTSHTNLYQPANNDCYLFDNLSKLGFTQHLMMGHNGQFGGFLKEVRENGGMQSELMDQTNLPVILLGFDGSPVYDDTAVLNRWLDVTEKDKNSRSATFYNTLPLHDGNHYPGVSKTADYKARAQKFFDELDAFFTELEKSGRKVMVVVVPEHGGALKGDRMQVSGLRDIPSPSITDVPVGVKFFGMKAPHQGAPIVIEQPSSFLAISDLVVRVLDGKIFTEDNVDWKKLTSGL | – | 3 | stoichiometry N [4]: 3 |
| BcsF (natural protein, E. coli, BcsF, E. coli; amplified within the genomic region bcsEFG; single transmembrane helix, amphipathic helical extension and cytosolic C-terminal tail; Two copies in the macrocomplex; also called inner membrane polypeptide BcsF; source: for the BcsF variants experiment E. coli Δbcs BL21*(DE3)) MMTISDIIEIIVVCALIFFPLGYLARHSLRRIRDTLRLFFAKPRYVKPAGTLRRTEKARATKK | – | 2 | – |
